Data from US20110135636A1 (SYMPHOGEN A S, published 2011).

Legend:
[1] = target: T1, Cynomolgus EGFR extracellular domain (Cynomolgus monkey (Macaca fascicularis), UniProt P55245 25-645 (rhesus entry)); test: ELISA on cynomolgus EGFR ECD (Example 10)
T1 construct: Cloned without signal peptide; also called Cynomolgus rEGFR ECD; Cynomolgus EGFR ECD
Procedure: To verify that tested Anti-EGFR antibodies bound equally well to both Human and Cynomolgus EGFR ECD and accordingly warranting toxicology studies in Cynomolgus monkeys, serial four fold dilutions of antibodies beginning from 1 μg/ml were tested by ELISA for binding to recombinant Human and Cynomolgus EGFR ECD proteins. […] ELISA wells were coated with 50 μl/well of full length EGFR at a concentration of 1 μg/ml in PBS overnight at 4° C. The next morning wells were washed twice with PBS-T and blocked for one hour with 100 μl PBS-T-1% BSA at room temperature, followed by wash twice in PBS-T. Next 50 μl of serially diluted Anti-EGFR antibodies and control antibodies were added to wells and incubated for one hour at room temperature. After antibody incubation wells were washed five times with PBS-T, followed by incubation with 50 μl/well Streptavidin-HRP secondary reagent diluted 1:3000 in blocking buffer and incubation at room temperature for 30 min. Finally wells were washed five times with PBS-T and plates were developed by adding 50 μL/well TMB substrate and incubated at room temperature. After incubation the reaction was stopped by addition of 1 M H₂SO₄; 100 μl/well and plates were read at OD 450 nm.

[2] = target: T2, recombinant human EGFR extracellular domain with 6xHis (human, UniProt P00533 25-645); test: SPR competition, competitor Ab-1
T2 construct: In-house produced; also called 6xHis EGFR ECD; soluble human EGFR ECD; not shown: 6xHis tag
Procedure: (§1) SPR analysis was performed on a Biacore 3000 machine containing four flow cells. A CM5 Biacore chip was conjugated with 10,000 Resonance units (Ru) polyclonal anti-His antibody to flow cells 1-4 according to the manufacturer's instructions. […] Immediately after antigen injection the maximal binding of the Anti-EGFR mAb without competition was established in each flow cell during a reference run. Briefly 5 μl antibody at a concentration of 40 μg/ml was injected over all flow cells with captured EGFR followed by stripping of the antibody/antigen complex with a low pH acid wash (10 sec. contact time with 10 mM Glycine-HCl, pH2). After the determination of Anti-EGFR antibody maximal binding to each flow cell, a competition run was performed during the same Biacore cycle. Flow cells were first saturated with EGFR ECD antigen followed by injection of different reference antibodies or Anti-EGFR antibodies into separate flow cells using the same antigen saturating conditions as outlined above. This step was immediately followed by a second injection of Anti-EGFR antibody over the flow cell saturated with EGFR antigen and competition antibody to minimize the dissociation of either antigen or blocking antibody. Then the antibody/antigen complexes were stripped off with a low pH acid wash (10 sec. contact time with 10 mM Glycine-HCl, pH 2) and the whole cycle beginning with the reference run was repeated with a new Anti-EGFR antibody. The degree of inhibition of tested Anti-EGFR antibodies were determined by comparing the Ru max value of the individual Anti-EGFR antibody before and after competition by introduction of report points recorded two seconds before and after injection of each sample.

[3] = target: T2, recombinant human EGFR extracellular …; test: SPR competition, competitor Ab-3
Procedure: as §1

[4] = target: T2, recombinant human EGFR extracellular …; test: SPR competition, competitor Ab-5
Procedure: as §1

[5] = target: T2, recombinant human EGFR extracellular …; test: SPR competition, competitor 1042
Procedure: as §1

[6] = target: T2, recombinant human EGFR extracellular …; test: SPR competition, competitor 1449
Procedure: as §1

[7] = target: T2, recombinant human EGFR extracellular …; test: SPR competition, competitor Ab-10
Procedure: as §1

[8] = target: T2, recombinant human EGFR extracellular …; test: SPR competition, competitor Ab-11
Procedure: as §1

[9] = target: T2, recombinant human EGFR extracellular …; test: SPR competition, competitor ICR10
Procedure: as §1

[10] = target: T3, wild type full length EGFR purified from A431 cells (human, UniProt P00533 25-1210); test: competition ELISA, competitor Ab-1; parameters: concentration or dose not given beside the values
T3 construct: mature; Bought; coated on ELISA wells; also called full length EGFR receptor antigen; Sigma E3641
Procedure: (§2) The ELISA was adapted from the descriptions published in Ditzel et al, 1995, The Journal of Immunology, Vol 154, Issue 2 893-906.
(§3) An epitope blocking ELISA was performed by diluting full length EGFR receptor antigen to 0.5 μg/ml in PBS; and coating 50 μl/ELISA well overnight at 4° C. […] Finally wells were washed four times with PBS-T and plates were developed by adding 50 μl/well TMB and read at 620 nm every 5-15-30 min. The degree of inhibition was calculated from the formula: % inhibition=(1−(OD competition/OD no competition (PBS)))×100.

[11] = target: T3, wild type full length EGFR purified …; test: competition ELISA, competitor Ab-2; parameters: concentration or dose not given beside the values
Procedure: as §2, §3

[12] = target: T3, wild type full length EGFR purified …; test: competition ELISA, competitor Ab-3; parameters: concentration or dose not given beside the values
Procedure: as §2, §3

[13] = target: T3, wild type full length EGFR purified …; test: competition ELISA, competitor Ab-5; parameters: concentration or dose not given beside the values
Procedure: as §2, §3

[14] = target: T3, wild type full length EGFR purified …; test: competition ELISA, competitor Ab-10; parameters: concentration or dose not given beside the values
Procedure: as §2, §3

[15] = target: T3, wild type full length EGFR purified …; test: competition ELISA, competitor Ab-11; parameters: concentration or dose not given beside the values
Procedure: as §2, §3

[16] = target: T3, wild type full length EGFR purified …; test: competition ELISA, competitor ICR10; parameters: concentration or dose not given beside the values
Procedure: as §2, §3

[17] = target: T2, recombinant human EGFR extracellular …; test: SPR competition, competitor Erbitux
Procedure: as §1

[18] = target: T2, recombinant human EGFR extracellular …; test: SPR competition, competitor Erbitux; remark: listed apart in the source
Procedure: as §1

[19] = target: T2, recombinant human EGFR extracellular …; test: SPR competition, competitor Vectibix
Procedure: as §1

[20] = target: T2, recombinant human EGFR extracellular …; test: SPR competition, competitor 992 corr
Procedure: as §1

[21] = target: T2, recombinant human EGFR extracellular …; test: SPR competition, competitor Vectibix; remark: listed apart in the source
Procedure: as §1

B1: antibody 1277 (antibody, human IgG1, kappa, V domains shown)
VH: EVQLVESGGGLVKPGESLKLSCAASGFAFSYSDMSWVRQTPEKRLEWVAYMSSAGDVTFYSDTVKGRFTISRDNAKNTLYLQVSSLKSEDTAIYYCVRHRDVAMDYWGQGTSVTVSS
VL: DVVMTQTPLSLPVSLGDQASISCRSSQSLVHSNGNTYLHWYLQKPGQSPKLLIYKVSNRFSGVPDRFSGSGSGTDFTLKISRVEAEDLGVYFCSQSTHVPTFGGGTKLEIKR
notes: Chimeric IgG1 kappa; also called clone 1277
binding result [1]: binds

B2: antibody 1042 (antibody, human IgG1, kappa, V domains shown)
VH: QVQLQQPGAELVKPGASVKLSCKASGYTFTSHWMHWVQQRPGQGLEWIGEIHPSNGRTNYNEKFKNKATLTVDKSPSTAYMQLSSLTSEDSAVYYCARYYGYDDAMDYWGQGTSVTVSS
VL: DIVMTQAAFSNPVTLGTSASISCRSSKSLLHSNGITYLYWYLQKPGQSPQLLIYQMSNLASGVPDRFSSSGSRTDFTLRISRVEAEDVGVYYCAQNLELPYTFGGGTKLEIKR
notes: Chimeric IgG1 kappa; RA- left out of the VH entry
% inhibition [2]: 14% | % inhibition [3]: 0% | % inhibition [4]: 10% | % inhibition [5]: 83% | % inhibition [6]: 93% | % inhibition [7]: -4% | % inhibition [8]: -8% | % inhibition [9]: -6% | binding result [1]: binds | % inhibition [10]: 24% | % inhibition [11]: 81% | % inhibition [12]: -29% | % inhibition [13]: -7% | % inhibition [14]: 15% | % inhibition [15]: 7% | % inhibition [16]: -7% | % inhibition [17]: 107% | % inhibition [18]: 107% | % inhibition [19]: 110% | % inhibition [20]: 25% | % inhibition [21]: 103%
